Experimental data: patent publication US20240392039A1 (Regeneron, published 2024)

Key:
Assay in all cases: cell-based or functional assay
human complement C5 [1] = biological target: T1, human complement C5 (human, UniProt P01031 19-1676)
human complement C5 [2] = biological target: T1, human complement C5; remark: listed apart in the source
human complement C5 [3] = biological target: T1, human complement C5; remark: listed apart in the source

T1 sequence (P01031 19-1676 limits assumed): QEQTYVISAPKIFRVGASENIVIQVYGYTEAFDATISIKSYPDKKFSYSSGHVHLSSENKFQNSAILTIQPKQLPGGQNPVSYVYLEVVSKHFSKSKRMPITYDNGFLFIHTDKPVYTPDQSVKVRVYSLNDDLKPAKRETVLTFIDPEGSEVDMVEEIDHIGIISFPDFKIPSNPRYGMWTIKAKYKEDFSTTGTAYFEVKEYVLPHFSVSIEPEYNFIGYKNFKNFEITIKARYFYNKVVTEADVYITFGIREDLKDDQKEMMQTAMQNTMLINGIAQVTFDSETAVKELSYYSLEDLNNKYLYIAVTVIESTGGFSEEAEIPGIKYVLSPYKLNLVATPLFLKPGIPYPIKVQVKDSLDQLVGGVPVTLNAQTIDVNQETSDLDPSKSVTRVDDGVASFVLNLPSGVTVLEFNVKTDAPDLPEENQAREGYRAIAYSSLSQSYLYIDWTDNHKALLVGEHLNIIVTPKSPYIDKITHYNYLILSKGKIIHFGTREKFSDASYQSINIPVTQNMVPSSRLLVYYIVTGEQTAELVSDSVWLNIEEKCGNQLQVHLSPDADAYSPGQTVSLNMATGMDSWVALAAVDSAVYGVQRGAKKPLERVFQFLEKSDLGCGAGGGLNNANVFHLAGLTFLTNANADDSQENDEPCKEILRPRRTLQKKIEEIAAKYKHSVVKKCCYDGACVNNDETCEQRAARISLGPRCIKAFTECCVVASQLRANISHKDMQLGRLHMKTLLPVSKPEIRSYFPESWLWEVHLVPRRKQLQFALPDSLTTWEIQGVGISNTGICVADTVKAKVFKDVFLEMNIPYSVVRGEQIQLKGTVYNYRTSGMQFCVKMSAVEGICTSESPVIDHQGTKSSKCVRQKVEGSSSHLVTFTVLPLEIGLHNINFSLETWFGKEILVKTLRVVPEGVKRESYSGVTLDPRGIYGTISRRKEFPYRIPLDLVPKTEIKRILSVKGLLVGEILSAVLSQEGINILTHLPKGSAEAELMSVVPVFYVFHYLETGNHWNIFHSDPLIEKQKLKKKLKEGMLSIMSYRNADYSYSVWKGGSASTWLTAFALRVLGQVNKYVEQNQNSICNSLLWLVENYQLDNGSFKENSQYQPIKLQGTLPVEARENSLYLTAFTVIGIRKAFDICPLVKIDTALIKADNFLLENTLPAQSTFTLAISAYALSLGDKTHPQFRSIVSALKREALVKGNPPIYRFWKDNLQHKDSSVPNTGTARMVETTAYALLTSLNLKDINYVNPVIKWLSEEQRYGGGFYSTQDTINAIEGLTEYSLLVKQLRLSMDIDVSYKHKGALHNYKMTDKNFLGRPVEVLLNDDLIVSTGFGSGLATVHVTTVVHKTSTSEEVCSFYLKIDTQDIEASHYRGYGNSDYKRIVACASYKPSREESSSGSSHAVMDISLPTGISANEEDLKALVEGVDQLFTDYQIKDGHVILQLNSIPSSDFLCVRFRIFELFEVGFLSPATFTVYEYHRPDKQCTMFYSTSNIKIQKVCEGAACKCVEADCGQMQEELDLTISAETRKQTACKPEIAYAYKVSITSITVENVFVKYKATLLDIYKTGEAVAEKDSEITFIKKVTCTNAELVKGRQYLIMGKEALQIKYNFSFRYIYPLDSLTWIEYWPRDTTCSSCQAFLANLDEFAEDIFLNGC

Binder | % Max Inh. of Lysis (alternative pathway hemolysis of rabbit RBC, 25% NHS, 30 min) (human complement C5 [1]) [%] | % Max Inh. of Lysis (alternative pathway hemolysis, 25% NHS, 30 min) (human complement C5 [2]) [%] | mAb/C5 ratio that blocked hemolysis to close to zero (25% C5-deficient NHS, 145 nM C5 add-back) (human complement C5 [3]) [mAb/C5 molar ratio]
H4H12175P (antibody, V domains shown) VH: EVQLVESGGGVVQPGGSLRLSCAASGFTFNDYAMHWVRQAPGKGLEWVSLISGDGGNTYYADSVKGRLTISRDNSKNSLYLQMNSLRTEDTALYYCAKDKGWNFGYFDLWGRGTLVTVSS VL: DIQMTQSPSSLSTSVGDRVTITCRASQNIDTYLNWYQQKPGKAPKLLIYDASSLQSGVPSRFSGSGSGTDFTLTITSLQPEDFATYYCQQNDNILHPLTFGGGTKVEIK | 77.8 |  | 
H4H12177P2 (antibody, V domains shown) VH: EVQLVESGGGVVQRGESLRLSCSASDFIFKDYAMYWVRQIPGKGLEWISLISGDGDTTWYGDSVKGRFTISRDNNENSLFLQMNDLRTEDTAMYYCARDMGWNFFQLQYWGQGTLVTVSS VL: not shown | 76.2 | 42.6 | 
H4H12161P (antibody, V domains shown) VH: EVQLVESGGDLVQPGGSLRLSCAASGFTFSDHYMDWVRQAPGKGLDWIGRIRNKANAYNTEYAASVRGRFTISRDDSQNLLYLQMNSLKTDDTAVYYCVRVWNYAYFAMDVWGQGTTVTVSS VL: DIQMTQSPSSLSASVGDRVTITCRSSQNIGIFLNWYQQKPGEAPNLLISAASSLHSGVPSRFSGSGSGTDFTLTIGSLQPEDFATYYCQQTYNTIFTFGPGTKVDIK | 59.2 |  | 
H4H12170P (antibody, IgG4, V domains shown) VH: QVQLVESGGGVVQPGRSLRLSCAASGFTFSGYGMHWVRQAPGKGLEWVALIWLDGSNDYYADSVKGRFTISRDNSKNTLYLQMNRLRAEDTAVYYCARDGPVAAIPDYWGQGTLVTVSS VL: DIQMTQSPSTLSASVGDRVTITCRASQSISRWLAWYQLKPGKAPKLLIYKASSLESGVPSRFSGSGSGTDFTLTISSLQPDDFATYYCQQYNTYSYTFGQGTKLEIK | 88.7 |  | 
H4H12171P (antibody, V domains shown) VH: EVQLVESGGGVVRPGGSLRLSCAASGFTFDEYGMTWVRQVPGKGLEWVSGITWNGGFTDYTDSVKGRFTSSRDNAKNSLYLQMNSLRAEDTALYYCARDGYSSSWGAYDIWGQGTMVTVSS VL: DIQMTQSPSSLSASVGDRVTITCRASQSISTYLNWYQQKPGKAPKLLIYAASSLQSGVPLRFSGSGSGTDFTLTISSLQPEDFASYFCQQSYSTPYTFGQGTKLEIK | 36.6 |  | 
H4H12176P2 (antibody, V domains shown) VH: EVQLVESGGGLVQPGGSLRLSCAASGFHSNRYWMDWVRQAPGKGLEWVANIKQDGSEENYVDSVKGRFTISRDNAKNSLYLQMNSLRAEDTAVYYCARDRSTSWVPYWFFDLWGRGTLVTVSS VL: not shown | 62.8 | 27.4 | 
H4H12176P2xH4H12177P2 bispecific antibody (bispecific antibody, V domains shown) VH 1: EVQLVESGGGLVQPGGSLRLSCAASGFHSNRYWMDWVRQAPGKGLEWVANIKQDGSEENYVDSVKGRFTISRDNAKNSLYLQMNSLRAEDTAVYYCARDRSTSWVPYWFFDLWGRGTLVTVSS VH 2: EVQLVESGGGVVQRGESLRLSCSASDFIFKDYAMYWVRQIPGKGLEWISLISGDGDTTWYGDSVKGRFTISRDNNENSLFLQMNDLRTEDTAMYYCARDMGWNFFQLQYWGQGTLVTVSS VL: not shown |  | 98.1 | ~1.29
